{
  "source": "patent US20250313614A1",
  "about": "(ANNEXON, published 2025)",
  "binders": {"B1": {"name": "FabA (Fab)", "heavy": "QVQLVQSGAELKKPGASVKVSCKSSGYHFTSYWMHWVKQAPGQGLEWIGVIHPNSGSINYNEKFESRVTITVDKSTSTAYMELSSLRSEDTAVYYCAGERDSTEVLPMDYWGQGTTVTVSSASTKGPSVFPLAPSSKSTSGGTAALGCLVKDYFPEPVTVSWNSGALTSGVHTFPAVLQSSGLYSLSSVVTVPSSSLGTQTYICNVNHKPSNTKVDKKVEPKSCDKTHT", "light": "DVQITQSPSSLSASLGERATINCRASKSINKYLAWYQQKPGKAPKLLIYSGSTLQSGIPARFSGSGSGTDFTLTISSLEPEDFAMYYCQQHNEYPLTFGQGTKLEIKRTVAAPSVFIFPPSDEQLKSGTASVVCLLNNFYPREAKVQWKVDNALQSGNSQESVTEQDSKDSTYSLSSTLTLSKADYEKHKVYACEVTHQGLSSPVTKSFNRGEC", "notes": "Recombinant humanized IgG1 Fab; also called anti-C1q Fab; anti-C1q antibody Fab fragment"}},
  "key": {"C1q": {"target": "C1q (Native C1q is a hexamer of A-B-C heterotrimers (18 chains); one chain of each kind is given. The collagen-like regions carry hydroxyproline and hydroxylysine.)", "sequence (A chain, as listed by the source limits assumed, form in doubt, chain 1 of 3)": "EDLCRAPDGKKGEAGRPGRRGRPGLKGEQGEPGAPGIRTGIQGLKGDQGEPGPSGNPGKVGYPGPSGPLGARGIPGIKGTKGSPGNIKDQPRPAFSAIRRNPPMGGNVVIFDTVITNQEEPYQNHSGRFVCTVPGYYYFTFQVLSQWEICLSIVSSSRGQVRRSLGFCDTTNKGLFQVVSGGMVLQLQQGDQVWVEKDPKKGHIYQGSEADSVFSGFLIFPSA", "sequence (B chain, as listed by the source limits assumed, form in doubt, chain 2 of 3)": "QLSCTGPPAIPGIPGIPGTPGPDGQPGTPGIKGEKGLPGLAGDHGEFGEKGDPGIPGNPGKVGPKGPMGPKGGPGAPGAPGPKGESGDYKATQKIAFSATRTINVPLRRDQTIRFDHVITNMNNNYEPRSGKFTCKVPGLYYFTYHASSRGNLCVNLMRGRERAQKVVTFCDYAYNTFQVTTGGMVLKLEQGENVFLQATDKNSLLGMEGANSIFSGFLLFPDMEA", "sequence (C chain, as listed by the source limits assumed, form in doubt, chain 3 of 3)": "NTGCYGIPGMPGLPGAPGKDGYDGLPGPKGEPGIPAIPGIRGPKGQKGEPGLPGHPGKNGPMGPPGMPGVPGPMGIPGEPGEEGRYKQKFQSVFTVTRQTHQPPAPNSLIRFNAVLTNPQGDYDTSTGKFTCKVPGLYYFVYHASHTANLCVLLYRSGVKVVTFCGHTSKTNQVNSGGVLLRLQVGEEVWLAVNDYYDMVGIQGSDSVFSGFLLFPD", "test": "cell-based or functional assay"}, "human C1q [1]": {"target": "T1, human C1q (human, UniProt P02745 23-245; P02746 28-253; P02747 29-245)", "T1 sequence (P02745 23-245 limits assumed, chain 1 of 3)": "as the sequence (A chain, as listed by the source limits assumed, form in doubt, chain 1 of 3) above", "T1 sequence (P02746 28-253 limits assumed, chain 2 of 3)": "as the sequence (B chain, as listed by the source limits assumed, form in doubt, chain 2 of 3) above", "T1 sequence (P02747 29-245 limits assumed, chain 3 of 3)": "as the sequence (C chain, as listed by the source limits assumed, form in doubt, chain 3 of 3) above", "test": "cell-based or functional assay"}, "human C1q [2]": {"target": "T1, human C1q", "test": "one-sided ELISA on human C1q, detection with enzyme-tagged anti-human-Fc or anti-human kappa antibody", "excerpt": "Binding of Mab2-Fab, FabA and Mab2 to human C1q in a one-sided ELISA. Bound antibody or Fab molecules were detected using an enzyme-tagged anti-human-Fc or anti-human kappa antibody followed by enzyme substrate."}},
  "note": "Where “and” joins values, the source holds several entries; their conditions need not be identical. Equal values may be shown once.",
  "data": [
    {"binder": "B1", "values": [
      {"measurement": "IC50 of inhibition of the classical pathway (IgM-coated wells, C5b-9 detection, Weislab ELISA kit)", "setting": "C1q", "result": "≤ 300", "unit": "ng/mL"},
      {"measurement": "half maximal inhibitory concentration (IC50) of inhibition of IgM-coated RBC hemolysis in human serum", "setting": "human C1q [1]", "result": "0.62 µg/mL and ~12 nM"},
      {"measurement": "EC50", "setting": "human C1q [2]", "result": 2.5, "unit": "ng/mL"}
    ]}
  ]
}
